Patent US20150299281A1 (ZEALAND PHARMA A S, published 2015)
Square brackets hold non-standard residues; d marks the D form. Aib = CC(C)(N)C(=O)O

T1: human GIP receptor (human, UniProt P48546 22-466)
T1 sequence (looked up): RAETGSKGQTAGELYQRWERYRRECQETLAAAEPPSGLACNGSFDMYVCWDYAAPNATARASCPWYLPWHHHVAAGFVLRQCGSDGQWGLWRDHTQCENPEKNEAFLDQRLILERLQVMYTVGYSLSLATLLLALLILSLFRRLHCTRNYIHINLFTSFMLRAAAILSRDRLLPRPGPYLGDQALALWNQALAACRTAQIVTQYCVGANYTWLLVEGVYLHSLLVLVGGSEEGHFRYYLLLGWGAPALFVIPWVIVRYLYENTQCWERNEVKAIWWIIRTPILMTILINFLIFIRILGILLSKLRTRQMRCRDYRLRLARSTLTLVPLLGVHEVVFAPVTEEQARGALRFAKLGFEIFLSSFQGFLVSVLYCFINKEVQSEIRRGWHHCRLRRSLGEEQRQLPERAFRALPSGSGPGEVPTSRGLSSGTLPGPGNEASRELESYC


Columns and labels:
human GIP receptor = molecular target: T1, human GIP receptor; experiment: cell-based or functional assay
human GLP-1 receptor = human GLP-1 receptor (human, UniProt P43220 24-463); experiment: cell-based or functional assay

EC50, cAMP induction in HEK293 cells expressing human GIP R (human GIP receptor) [nM]	EC50, cAMP induction in HEK293 cells expressing human GLP-1 R (human GLP-1 receptor) [nM]	Binder
0.049	0.009	H-Y[Aib]EGTFTSDYSIYLDKKAQRAFVKWLLA[Aib]K-NH2 (SMILES CC[C@H](C)[C@H](NC(=O)[C@H](CO)NC(=O)[C@H](Cc1ccc(O)cc1)NC(=O)[C@H](CC(=O)O)NC(=O)[C@H](CO)NC(=O)[C@@H](NC(=O)[C@H](Cc1ccccc1)NC(=O)[C@@H](NC(=O)CNC(=O)[C@H](CCC(=O)O)NC(=O)C(C)(C)NC(=O)[C@@H](N)Cc1ccc(O)cc1)[C@@H](C)O)[C@@H](C)O)C(=O)N[C@@H](Cc1ccc(O)cc1)C(=O)N[C@@H](CC(C)C)C(=O)N[C@@H](CC(=O)O)C(=O)N[C@@H](CCCCN)C(=O)N[C@@H](CCCCN)C(=O)N[C@@H](C)C(=O)N[C@@H](CCC(N)=O)C(=O)N[C@@H](CCCNC(=N)N)C(=O)N[C@@H](C)C(=O)N[C@@H](Cc1ccccc1)C(=O)N[C@H](C(=O)N[C@@H](CCCCN)C(=O)N[C@@H](Cc1c[nH]c2ccccc12)C(=O)N[C@@H](CC(C)C)C(=O)N[C@@H](CC(C)C)C(=O)N[C@@H](C)C(=O)NC(C)(C)C(=O)N[C@@H](CCCCN)C(N)=O)C(C)C) [Compound 20]
0.096	0.0085	H-Y[Aib]EGTFTSDYSIYLDKKAQRAFVNWLL[Aib]K-NH2 (SMILES CC[C@H](C)[C@H](NC(=O)[C@H](CO)NC(=O)[C@H](Cc1ccc(O)cc1)NC(=O)[C@H](CC(=O)O)NC(=O)[C@H](CO)NC(=O)[C@@H](NC(=O)[C@H](Cc1ccccc1)NC(=O)[C@@H](NC(=O)CNC(=O)[C@H](CCC(=O)O)NC(=O)C(C)(C)NC(=O)[C@@H](N)Cc1ccc(O)cc1)[C@@H](C)O)[C@@H](C)O)C(=O)N[C@@H](Cc1ccc(O)cc1)C(=O)N[C@@H](CC(C)C)C(=O)N[C@@H](CC(=O)O)C(=O)N[C@@H](CCCCN)C(=O)N[C@@H](CCCCN)C(=O)N[C@@H](C)C(=O)N[C@@H](CCC(N)=O)C(=O)N[C@@H](CCCNC(=N)N)C(=O)N[C@@H](C)C(=O)N[C@@H](Cc1ccccc1)C(=O)N[C@H](C(=O)N[C@@H](CC(N)=O)C(=O)N[C@@H](Cc1c[nH]c2ccccc12)C(=O)N[C@@H](CC(C)C)C(=O)N[C@@H](CC(C)C)C(=O)NC(C)(C)C(=O)N[C@@H](CCCCN)C(N)=O)C(C)C) [Compound 24]
0.08	0.009	H-Y[Aib]EGTFTSDYSIYLDKKAQRAFVNWLVA[Aib]K-NH2 (SMILES CC[C@H](C)[C@H](NC(=O)[C@H](CO)NC(=O)[C@H](Cc1ccc(O)cc1)NC(=O)[C@H](CC(=O)O)NC(=O)[C@H](CO)NC(=O)[C@@H](NC(=O)[C@H](Cc1ccccc1)NC(=O)[C@@H](NC(=O)CNC(=O)[C@H](CCC(=O)O)NC(=O)C(C)(C)NC(=O)[C@@H](N)Cc1ccc(O)cc1)[C@@H](C)O)[C@@H](C)O)C(=O)N[C@@H](Cc1ccc(O)cc1)C(=O)N[C@@H](CC(C)C)C(=O)N[C@@H](CC(=O)O)C(=O)N[C@@H](CCCCN)C(=O)N[C@@H](CCCCN)C(=O)N[C@@H](C)C(=O)N[C@@H](CCC(N)=O)C(=O)N[C@@H](CCCNC(=N)N)C(=O)N[C@@H](C)C(=O)N[C@@H](Cc1ccccc1)C(=O)N[C@H](C(=O)N[C@@H](CC(N)=O)C(=O)N[C@@H](Cc1c[nH]c2ccccc12)C(=O)N[C@@H](CC(C)C)C(=O)N[C@H](C(=O)N[C@@H](C)C(=O)NC(C)(C)C(=O)N[C@@H](CCCCN)C(N)=O)C(C)C)C(C)C) [Compound 21]
0.36	0.015	H-Y[Aib]EGTFTSDYSIYLDSKAKRAFVNWLLA[Aib]K-NH2 (SMILES CC[C@H](C)[C@H](NC(=O)[C@H](CO)NC(=O)[C@H](Cc1ccc(O)cc1)NC(=O)[C@H](CC(=O)O)NC(=O)[C@H](CO)NC(=O)[C@@H](NC(=O)[C@H](Cc1ccccc1)NC(=O)[C@@H](NC(=O)CNC(=O)[C@H](CCC(=O)O)NC(=O)C(C)(C)NC(=O)[C@@H](N)Cc1ccc(O)cc1)[C@@H](C)O)[C@@H](C)O)C(=O)N[C@@H](Cc1ccc(O)cc1)C(=O)N[C@@H](CC(C)C)C(=O)N[C@@H](CC(=O)O)C(=O)N[C@@H](CO)C(=O)N[C@@H](CCCCN)C(=O)N[C@@H](C)C(=O)N[C@@H](CCCCN)C(=O)N[C@@H](CCCNC(=N)N)C(=O)N[C@@H](C)C(=O)N[C@@H](Cc1ccccc1)C(=O)N[C@H](C(=O)N[C@@H](CC(N)=O)C(=O)N[C@@H](Cc1c[nH]c2ccccc12)C(=O)N[C@@H](CC(C)C)C(=O)N[C@@H](CC(C)C)C(=O)N[C@@H](C)C(=O)NC(C)(C)C(=O)N[C@@H](CCCCN)C(N)=O)C(C)C) [Compound 18]
0.015	0.0073	H-Y[Aib]EGTFTSDYSIYLDKKAQKEFVNWLLA[Aib]K-NH2 (SMILES CC[C@H](C)[C@H](NC(=O)[C@H](CO)NC(=O)[C@H](Cc1ccc(O)cc1)NC(=O)[C@H](CC(=O)O)NC(=O)[C@H](CO)NC(=O)[C@@H](NC(=O)[C@H](Cc1ccccc1)NC(=O)[C@@H](NC(=O)CNC(=O)[C@H](CCC(=O)O)NC(=O)C(C)(C)NC(=O)[C@@H](N)Cc1ccc(O)cc1)[C@@H](C)O)[C@@H](C)O)C(=O)N[C@@H](Cc1ccc(O)cc1)C(=O)N[C@@H](CC(C)C)C(=O)N[C@@H](CC(=O)O)C(=O)N[C@@H](CCCCN)C(=O)N[C@@H](CCCCN)C(=O)N[C@@H](C)C(=O)N[C@@H](CCC(N)=O)C(=O)N[C@@H](CCCCN)C(=O)N[C@@H](CCC(=O)O)C(=O)N[C@@H](Cc1ccccc1)C(=O)N[C@H](C(=O)N[C@@H](CC(N)=O)C(=O)N[C@@H](Cc1c[nH]c2ccccc12)C(=O)N[C@@H](CC(C)C)C(=O)N[C@@H](CC(C)C)C(=O)N[C@@H](C)C(=O)NC(C)(C)C(=O)N[C@@H](CCCCN)C(N)=O)C(C)C) [Compound 19]
0.42	0.012	H-Y[Aib]EGTFTSDYSIYLDKKAQRAFVNWLKA[Aib]K-NH2 (SMILES CC[C@H](C)[C@H](NC(=O)[C@H](CO)NC(=O)[C@H](Cc1ccc(O)cc1)NC(=O)[C@H](CC(=O)O)NC(=O)[C@H](CO)NC(=O)[C@@H](NC(=O)[C@H](Cc1ccccc1)NC(=O)[C@@H](NC(=O)CNC(=O)[C@H](CCC(=O)O)NC(=O)C(C)(C)NC(=O)[C@@H](N)Cc1ccc(O)cc1)[C@@H](C)O)[C@@H](C)O)C(=O)N[C@@H](Cc1ccc(O)cc1)C(=O)N[C@@H](CC(C)C)C(=O)N[C@@H](CC(=O)O)C(=O)N[C@@H](CCCCN)C(=O)N[C@@H](CCCCN)C(=O)N[C@@H](C)C(=O)N[C@@H](CCC(N)=O)C(=O)N[C@@H](CCCNC(=N)N)C(=O)N[C@@H](C)C(=O)N[C@@H](Cc1ccccc1)C(=O)N[C@H](C(=O)N[C@@H](CC(N)=O)C(=O)N[C@@H](Cc1c[nH]c2ccccc12)C(=O)N[C@@H](CC(C)C)C(=O)N[C@@H](CCCCN)C(=O)N[C@@H](C)C(=O)NC(C)(C)C(=O)N[C@@H](CCCCN)C(N)=O)C(C)C) [Compound 23]
